Source: PMC9482650, “Quantitative fragmentomics allow affinity mapping of interactomes” (Nature Communications, 2022)

Tests used:
Assay in all cases: holdup assay
Set-up in all cases: key: below the threshold = too weak to quantify, mostly under pKd 3.1 to 4
[1] = target: T1, APBA2_1, Q99767
T1 sequence (Q99767 563-664, limits assumed, looked up): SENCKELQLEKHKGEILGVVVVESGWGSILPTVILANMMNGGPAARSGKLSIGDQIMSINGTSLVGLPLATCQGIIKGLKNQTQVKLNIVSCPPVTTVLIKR

[2] = target: T2, ARHGEF11, O15085
T2 sequence (O15085 42-136, limits assumed, looked up): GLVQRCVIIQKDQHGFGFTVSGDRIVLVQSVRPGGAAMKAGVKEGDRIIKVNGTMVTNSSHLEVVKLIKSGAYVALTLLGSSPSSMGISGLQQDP

[3] = target: ARHGEF12, Q9NZN5-2
Sequence of ARHGEF12, Q9NZN5-2 (Q9NZN5 other isoform, or with tags, fused parts or gaps): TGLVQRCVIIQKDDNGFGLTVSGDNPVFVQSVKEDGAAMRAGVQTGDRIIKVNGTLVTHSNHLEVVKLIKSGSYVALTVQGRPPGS

[4] = target: DLG2_2, Q15700
[5] = target: DLG2_3, Q15700
[6] = target: GIPC2, Q8TF65
Sequence of GIPC2, Q8TF65 (Q8TF65 112-203): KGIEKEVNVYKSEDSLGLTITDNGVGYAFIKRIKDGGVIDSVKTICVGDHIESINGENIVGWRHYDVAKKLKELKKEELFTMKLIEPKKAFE

[7] = target: GOPC, Q9HD26
[8] = target: T3, GRIP1_2, Q9Y3R0
T3 sequence (Q9Y3R0 145-248, limits assumed, looked up): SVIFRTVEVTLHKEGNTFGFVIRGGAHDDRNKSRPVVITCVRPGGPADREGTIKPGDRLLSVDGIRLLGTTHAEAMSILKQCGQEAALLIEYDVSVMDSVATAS

[9] = target: T4, GRIP1_3, Q9Y3R0
T4 sequence (Q9Y3R0 247-346, limits assumed, looked up): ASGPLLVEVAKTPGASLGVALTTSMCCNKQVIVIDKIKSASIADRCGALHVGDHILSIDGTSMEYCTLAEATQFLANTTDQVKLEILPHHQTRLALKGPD

[10] = target: T5, GRIP1_4, Q9Y3R0
T5 sequence (Q9Y3R0 467-571, limits assumed, looked up): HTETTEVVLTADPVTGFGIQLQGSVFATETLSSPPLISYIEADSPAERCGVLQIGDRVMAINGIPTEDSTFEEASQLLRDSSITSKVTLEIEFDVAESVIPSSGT

[11] = target: GRIP2_7, Q9C0E4
Sequence of GRIP2_7, Q9C0E4 (Q9C0E4 934-1023): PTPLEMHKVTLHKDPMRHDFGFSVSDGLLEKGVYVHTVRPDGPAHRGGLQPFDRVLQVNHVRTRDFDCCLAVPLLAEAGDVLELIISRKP

[12] = target: HTRA2, O43464
Sequence of HTRA2, O43464 (O43464 355-458): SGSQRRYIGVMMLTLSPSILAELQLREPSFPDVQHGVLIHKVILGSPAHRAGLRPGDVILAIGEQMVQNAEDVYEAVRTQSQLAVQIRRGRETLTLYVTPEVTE

[13] = target: Inadl_1, Q8NI35
Sequence of Inadl_1, Q8NI35 (Q8NI35 113-229): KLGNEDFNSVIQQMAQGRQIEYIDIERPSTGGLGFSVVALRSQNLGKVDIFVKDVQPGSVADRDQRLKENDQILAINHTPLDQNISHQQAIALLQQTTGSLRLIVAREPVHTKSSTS

[14] = target: Inadl_3, Q8NI35
Sequence of Inadl_3, Q8NI35 (Q8NI35 359-469): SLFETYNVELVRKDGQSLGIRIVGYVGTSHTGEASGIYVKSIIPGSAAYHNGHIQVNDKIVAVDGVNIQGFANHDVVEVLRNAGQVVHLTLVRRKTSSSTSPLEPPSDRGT

[15] = target: Inadl_4, Q8NI35
Sequence of Inadl_4, Q8NI35 (Q8NI35 547-651): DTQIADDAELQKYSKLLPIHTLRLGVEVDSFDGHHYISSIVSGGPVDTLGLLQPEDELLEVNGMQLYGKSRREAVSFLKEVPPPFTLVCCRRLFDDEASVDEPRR

[16] = target: LDB3, O75112
Sequence of LDB3, O75112 (O75112 1-94): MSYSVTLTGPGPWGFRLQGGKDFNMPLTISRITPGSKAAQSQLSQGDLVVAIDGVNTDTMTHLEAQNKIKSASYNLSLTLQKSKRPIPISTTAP

[17] = target: LNX1_2, Q8TBB1
Sequence of LNX1_2, Q8TBB1 (Q8TBB1 371-470): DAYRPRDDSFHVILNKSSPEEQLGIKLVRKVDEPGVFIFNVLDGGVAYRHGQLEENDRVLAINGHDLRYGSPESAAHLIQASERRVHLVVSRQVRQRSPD

[18] = target: T6, LNX2_2, Q8N448
T6 sequence (Q8N448 334-432, limits assumed, looked up): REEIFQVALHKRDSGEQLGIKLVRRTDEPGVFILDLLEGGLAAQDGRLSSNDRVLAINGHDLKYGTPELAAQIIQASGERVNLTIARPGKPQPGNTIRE

[19] = target: MAST2, Q6P0Q8
Sequence of MAST2, Q6P0Q8 (Q6P0Q8 1099-1202): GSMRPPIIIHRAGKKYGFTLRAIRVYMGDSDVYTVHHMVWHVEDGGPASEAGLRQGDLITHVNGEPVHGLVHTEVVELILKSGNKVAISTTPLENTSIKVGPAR

[20] = target: T7, MPDZ_12, O75970
T7 sequence (O75970 1857-1958, limits assumed, looked up): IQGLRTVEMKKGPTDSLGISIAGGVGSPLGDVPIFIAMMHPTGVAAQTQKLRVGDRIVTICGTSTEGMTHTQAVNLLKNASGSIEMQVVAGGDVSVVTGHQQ

[21] = target: PDLIM1, O00151
Sequence of PDLIM1, O00151 (O00151 1-87): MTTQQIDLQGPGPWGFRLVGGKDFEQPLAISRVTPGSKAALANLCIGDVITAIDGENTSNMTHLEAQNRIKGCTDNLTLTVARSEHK

[22] = target: T8, PDZD7_3, Q9H5P4
T8 sequence (Q9H5P4 857-944, limits assumed, looked up): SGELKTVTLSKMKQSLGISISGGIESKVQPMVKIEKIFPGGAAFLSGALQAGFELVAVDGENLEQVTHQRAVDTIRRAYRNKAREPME

[23] = target: PICK1, Q9NRD5
Sequence of PICK1, Q9NRD5 (Q9NRD5 17-115): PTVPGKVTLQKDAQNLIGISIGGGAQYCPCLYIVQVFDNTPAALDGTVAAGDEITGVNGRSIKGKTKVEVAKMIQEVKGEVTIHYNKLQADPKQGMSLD

[24] = target: T9, PTPN13_1, Q12923
T9 sequence (Q12923 1088-1188, limits assumed, looked up): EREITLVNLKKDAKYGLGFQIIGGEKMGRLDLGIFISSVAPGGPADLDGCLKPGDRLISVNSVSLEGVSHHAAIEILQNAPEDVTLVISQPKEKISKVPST

[25] = target: SCRIB_1, Q14160
Sequence of SCRIB_1, Q14160 (Q14160 718-814): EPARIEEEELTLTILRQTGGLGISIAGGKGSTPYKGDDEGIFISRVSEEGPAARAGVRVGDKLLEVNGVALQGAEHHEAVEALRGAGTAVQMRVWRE

[26] = target: T10, SIPA1L2, Q9P2F8
T10 sequence (Q9P2F8 945-1036, limits assumed, looked up): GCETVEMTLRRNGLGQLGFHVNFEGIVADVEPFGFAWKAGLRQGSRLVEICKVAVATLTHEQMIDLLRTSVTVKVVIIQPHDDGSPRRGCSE

[27] = target: T11, SNTA1, Q13424
T11 sequence (Q13424 82-180, limits assumed, looked up): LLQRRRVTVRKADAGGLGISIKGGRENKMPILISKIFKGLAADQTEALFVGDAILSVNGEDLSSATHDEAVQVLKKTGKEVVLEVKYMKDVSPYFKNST

[28] = plain residues with an end cap or a label only (N-terminal biotin on a linker: ado-ado)
[29] = plain residues with an end cap or a label only (N-terminal biotin on a linker: ahx)

LPAVCYDIDI [PTTG2, Q9NZH5] was tested, and the pKd [1, 28] was “below the threshold”, the pKd [2, 28] was “below the threshold” and the pKd [3, 28] was “below the threshold”. The pKd [4, 28] was “below the threshold”, the pKd [5, 28] was 3.63 and the pKd [6, 28] was 4.08. For the same binder, the pKd [7, 28] was “below the threshold”, the pKd [8, 28] was “below the threshold” and the pKd [9, 28] was “below the threshold”. For the same binder, the pKd [10, 28] was “below the threshold”, the pKd [11, 28] was “below the threshold” and the pKd [12, 28] was “below the threshold”. The pKd [13, 28] was “below the threshold”, the pKd [14, 28] was 4.63 and the pKd [15, 28] was “below the threshold”. For the same binder, the pKd [16, 28] was “below the threshold”, the pKd [17, 28] was “below the threshold” and the pKd [18, 28] was 3.83. For the same binder, the pKd [19, 28] was 5, the pKd [20, 28] was 3.48 and the pKd [21, 28] was “below the threshold”. For the same binder, the pKd [22, 28] was “below the threshold”, the pKd [23, 28] was “below the threshold” and the pKd [24, 28] was “below the threshold”. The pKd [25, 28] was “below the threshold”, the pKd [26, 28] was “below the threshold” and the pKd [27, 28] was “below the threshold”.

For QNTDDVQTSF [ACE2, Q9BYF1], the pKd [1, 29] was “below the threshold”, the pKd [2, 29] was “below the threshold” and the pKd [3, 29] was 3.65. The pKd [4, 29] was “below the threshold”, the pKd [5, 29] was “below the threshold” and the pKd [6, 29] was “below the threshold”. For the same binder, the pKd [7, 29] was “below the threshold”, the pKd [8, 29] was “below the threshold” and the pKd [9, 29] was “below the threshold”. The pKd [10, 29] was “below the threshold”, the pKd [11, 29] was “below the threshold” and the pKd [12, 29] was “below the threshold”. For the same binder, the pKd [13, 29] was “below the threshold”, the pKd [14, 29] was 3.66 and the pKd [15, 29] was “below the threshold”. The pKd [16, 29] was “below the threshold”, the pKd [17, 29] was “below the threshold” and the pKd [18, 29] was “below the threshold”. The pKd [19, 29] was 5.13, the pKd [20, 29] was “below the threshold” and the pKd [21, 29] was “below the threshold”. The pKd [22, 29] was 3.51, the pKd [23, 29] was “below the threshold” and the pKd [24, 29] was “below the threshold”. The pKd [25, 29] was “below the threshold”, the pKd [26, 29] was “below the threshold” and the pKd [27, 29] was “below the threshold”.

In the case of GEDRSPPTAL [MKNK1, Q9BUB5], the pKd [1, 28] is reported as “below the threshold”, the pKd [2, 28] is reported as 4.01 and the pKd [3, 28] is reported as “below the threshold”. The pKd [4, 28] was “below the threshold”, the pKd [5, 28] was “below the threshold” and the pKd [6, 28] was “below the threshold”. For the same binder, the pKd [7, 28] was 3.5, the pKd [8, 28] was “below the threshold” and the pKd [9, 28] was “below the threshold”. The pKd [10, 28] was “below the threshold”, the pKd [11, 28] was “below the threshold” and the pKd [12, 28] was “below the threshold”. For the same binder, the pKd [13, 28] was “below the threshold”, the pKd [14, 28] was “below the threshold” and the pKd [15, 28] was “below the threshold”. For the same binder, the pKd [16, 28] was “below the threshold”, the pKd [17, 28] was “below the threshold” and the pKd [18, 28] was “below the threshold”. The pKd [19, 28] was 4.85, the pKd [20, 28] was “below the threshold” and the pKd [21, 28] was “below the threshold”. For the same binder, the pKd [22, 28] was 3.8, the pKd [23, 28] was “below the threshold” and the pKd [24, 28] was “below the threshold”. The pKd [25, 28] was “below the threshold”, the pKd [26, 28] was “below the threshold” and the pKd [27, 28] was “below the threshold”.

SVTSERETNI [SLC16A7, O60669] was tested, and the pKd [1, 28] was “below the threshold”, the pKd [2, 28] was “below the threshold” and the pKd [3, 28] was 3.67. For the same binder, the pKd [4, 28] was 3.95, the pKd [5, 28] was 3.62 and the pKd [6, 28] was “below the threshold”. The pKd [7, 28] was “below the threshold”, the pKd [8, 28] was “below the threshold” and the pKd [9, 28] was “below the threshold”. For the same binder, the pKd [10, 28] was “below the threshold”, the pKd [11, 28] was “below the threshold” and the pKd [12, 28] was “below the threshold”. For the same binder, the pKd [13, 28] was “below the threshold”, the pKd [14, 28] was “below the threshold” and the pKd [15, 28] was “below the threshold”. For the same binder, the pKd [16, 28] was “below the threshold”, the pKd [17, 28] was “below the threshold” and the pKd [18, 28] was “below the threshold”. The pKd [19, 28] was 4.84, the pKd [20, 28] was “below the threshold” and the pKd [21, 28] was “below the threshold”. For the same binder, the pKd [22, 28] was 4.69, the pKd [23, 28] was “below the threshold” and the pKd [24, 28] was “below the threshold”. The pKd [25, 28] was 4.1, the pKd [26, 28] was “below the threshold” and the pKd [27, 28] was 5.09.
